This test addresses T1, SARS-CoV-2 Spike S1+S2 ECD, his Tag protein (SARS-CoV-2, Wuhan-Hu-1, UniProt P0DTC2).
T1 construct: also called full-length S protein; full-length S-his; source: bought: Sino Biological
Kind of test: ELISA. The settings on record: both partners purified. For orientation: ELISA stands for enzyme-linked immunosorbent assay.

This note sets out measurements from publication PMC8113581 (Nature Communications, 2021).

B1: P4A1 (antibody, V domains shown)
VH: EVQLVESGGGLIQPGGSLRLSCAASGFIVSSNYMSWVRQAPGKGLEWVSIIYSGGSTFYADSVKGRFTISRDNSKNTLYLQMNSLRVEDTAVYYCARDLQELGSLDYWGQGTLVTVSS
VL: DIQMTQSPSSVSASVGDRVTITCRASQGISSWLAWYQQKPGKAPKLLIYAASSLQSGVPSRFSGSGSGTDFTLTISSLQPEDFATYYCQEANSFPYTFGQGTKLEIK
notes: also called P4A1 (IgG1); IgG1 form P4A1
For B1, the binding result is listed as “binds”.
